The source of these data is patent US20140086913A1 (Gilead, published 2014).

The target of experiment [1] is DDR1 with a ProLink Tag (PK) in engineered U20S cells (DiscoveRx), Q08345. As to the kind of experiment: cell-based or functional assay.
In experiment [2] the target is T1, human DDR2 stably expressed on HEK293 cells (human, UniProt Q16832 22-855).
T1 construct: whole, on cells; also called hDDR2
T1 sequence (looked up): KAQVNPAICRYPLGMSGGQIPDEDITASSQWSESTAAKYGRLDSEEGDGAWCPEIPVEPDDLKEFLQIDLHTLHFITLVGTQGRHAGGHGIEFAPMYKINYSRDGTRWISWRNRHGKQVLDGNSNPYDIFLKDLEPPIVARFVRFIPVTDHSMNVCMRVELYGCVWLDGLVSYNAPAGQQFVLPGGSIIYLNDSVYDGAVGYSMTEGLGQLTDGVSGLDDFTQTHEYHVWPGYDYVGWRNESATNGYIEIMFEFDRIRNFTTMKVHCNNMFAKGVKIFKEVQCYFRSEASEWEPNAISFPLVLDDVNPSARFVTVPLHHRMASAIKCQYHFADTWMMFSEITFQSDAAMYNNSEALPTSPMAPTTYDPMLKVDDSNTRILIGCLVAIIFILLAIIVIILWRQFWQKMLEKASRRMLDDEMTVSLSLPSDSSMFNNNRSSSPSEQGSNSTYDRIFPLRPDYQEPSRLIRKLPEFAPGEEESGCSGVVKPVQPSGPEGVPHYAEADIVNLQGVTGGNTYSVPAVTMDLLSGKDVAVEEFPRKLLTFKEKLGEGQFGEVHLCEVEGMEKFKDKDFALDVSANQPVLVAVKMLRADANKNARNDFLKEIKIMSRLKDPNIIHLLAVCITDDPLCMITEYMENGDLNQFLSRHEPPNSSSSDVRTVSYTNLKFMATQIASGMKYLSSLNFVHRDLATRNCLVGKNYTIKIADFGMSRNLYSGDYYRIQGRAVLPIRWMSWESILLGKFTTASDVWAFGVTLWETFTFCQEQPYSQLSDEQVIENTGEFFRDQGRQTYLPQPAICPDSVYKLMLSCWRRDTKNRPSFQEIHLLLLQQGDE
As to the kind of experiment: flow cytometry, HEK293/hDDR2. The method, then:
Additional monoclonal antibodies were obtained from individual hybridomas in Example 1 and were characterized for their properties.
Cells were cultured in DMEM with 10% FBS and 0.8 mg/mL hygromycin. When cells reached 60-80% confluence, they were centrifuged at 1,200 rpm for 5 minutes, suspended in FACS buffer (1×PBS, 1% BSA), and aliquoted into a 96-well plate at 1×10⁶ cells per well. The anti-DDR1 monoclonal antibodies or appropriate isotype controls at 2 μg per 1×10⁶ cells were added and incubated at 4° C. for 1 hr. The cells were washed twice with FACS buffer then stained with the anti-IgG-PE secondary antibody at 10 μL per well at 4° C. for 1 hr. The cells were washed again and measured for the MFI values or signals using flow cytometry (LSR Fortessa instrument, BD Biosciences). Background MFI signals from vector-only cells (i.e. no DDR1 or DDR2 expression) was subtracted from those of the cells treated with antibodies. Higher MFI values or signals indicated increased binding or specificity of the anti-DDR1 antibodies to the DDR1 on the cell surface.
(In flow cytometry, cells or beads pass a laser one at a time.)

For the next experiment, the target named is T2, mouse ECD-DDR1-Fc (mouse; human, UniProt Q03146 22-414).
T2 construct: also called mouse DDR1-ECD; wild-type mouse DDR1-ECD; not shown: human IgG1 Fc of the vector pFuse-hIgG1-Fc1 (Invivogen)
T2 sequence: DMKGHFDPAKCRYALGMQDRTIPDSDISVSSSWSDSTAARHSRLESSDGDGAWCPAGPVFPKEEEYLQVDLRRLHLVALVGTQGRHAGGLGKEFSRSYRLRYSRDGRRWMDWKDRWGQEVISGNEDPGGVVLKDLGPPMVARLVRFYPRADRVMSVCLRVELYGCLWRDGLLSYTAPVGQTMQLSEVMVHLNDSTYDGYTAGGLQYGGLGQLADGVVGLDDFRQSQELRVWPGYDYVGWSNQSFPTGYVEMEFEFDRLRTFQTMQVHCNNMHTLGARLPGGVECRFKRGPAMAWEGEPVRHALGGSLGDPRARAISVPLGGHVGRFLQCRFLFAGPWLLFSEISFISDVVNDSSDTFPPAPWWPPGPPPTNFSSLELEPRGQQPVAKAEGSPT
As to the kind of experiment: ELISA, coated antigen. Here is the method:
(§1) In this study, ELISA was used to determine the affinity of murine anti-DDR1 monoclonal antibodies to the extracellular domain (ECD) of either human or murine DDR1. A 96-well MaxiSorb ELISA plates (Nunc) were coated with 2 μg/mL of one of three purified recombinant tagged proteins: human ECD-DDR1-His protein, human ECD-DDR1-Fc, or mouse ECD-DDR1-Fc overnight at 4° C. The next day, the plates were blocked with 5% bovine serum albumin (BSA, Jackson Immunoresearch) prior to the addition of serially diluted anti-DDR1 monoclonal antibodies. Antibodies were incubated for 1 hr at room temperature. The binding of antibody to the antigen was detected by incubating samples with anti-mouse IgG-HRP (horse radish peroxidase) secondary detection antibody (Jackson Immunoresearch) for 1 hr. After a washing step, 3,3′,5,5″-tetramethylbenzidine (TMB) reagent was added for HRP to produce a colorimetric signal. The reaction was stopped by addition of 1M hydrochloric acid after 2 minutes and measured for absorbance (optical density, OD) at 450λ on a Molecular Devices plate reader. The OD values were plotted against antibody concentration and fitted using a using 4-parameter logistic equation in SoftMax software (Molecular Devices). The apparent affinity constant (KD) was taken from the C-parameter of the equation (y=(A−D)/(1+(x/C)̂B)+D). The apparent affinity constants were summarized (in some cases shown as average values) in Table 10 below. Lower value indicates higher binding affinity of the antibody to the antigen.
(In general: An ELISA detects its analyte on a solid surface through an enzyme-linked reagent.)

The target in experiment [3] is DDR1 endogenously expressed on human cancer cell lines (T47D, HCT-116, A431) (human) (UniProt Q08345). As to the kind of experiment: flow cytometry, HCT116 cells.
For experiment [4] the target is unchanged. As to the kind of experiment: flow cytometry, T47D cells.
The target of experiment [5] is T3, human ECD-DDR1-His protein (human, UniProt Q08345 21-416).
T3 construct: also called huDDR1-ECD-His; DDR1ECD-6Xhis; not shown: His tag
As to the kind of experiment: ELISA, coated antigen, apparent KD. The method, then:
as §1

Experiment [6] deals with T4, DDR1ECD-Fc (R&D Systems, Catalog #2396-DR) (human, UniProt Q08345 21-416).
T4 construct: range 21-416; construct as described for the bought immunogen; also called human ECD-DDR1-Fc; Fc-ECD-DR1; not shown: human IgG1, Pro100-Lys330
As to the kind of experiment: ELISA, coated antigen, apparent KD. Here is the method:
as §1

The target in experiment [7] is human DDR1 (isoform B) stably expressed on HEK293 cells (human) (UniProt Q08345). As to the kind of experiment: flow cytometry, HEK293/hDDR1.
Experiment [8] addresses DDR1 endogenously expressed on human cancer cell lines (T47D, HCT-116, A431) (human) (UniProt Q08345). As to the kind of experiment: cell-based or functional assay.

human DDR1 (isoform B) stably expressed on HEK293 cells (human), sequence (Q08345 19-913): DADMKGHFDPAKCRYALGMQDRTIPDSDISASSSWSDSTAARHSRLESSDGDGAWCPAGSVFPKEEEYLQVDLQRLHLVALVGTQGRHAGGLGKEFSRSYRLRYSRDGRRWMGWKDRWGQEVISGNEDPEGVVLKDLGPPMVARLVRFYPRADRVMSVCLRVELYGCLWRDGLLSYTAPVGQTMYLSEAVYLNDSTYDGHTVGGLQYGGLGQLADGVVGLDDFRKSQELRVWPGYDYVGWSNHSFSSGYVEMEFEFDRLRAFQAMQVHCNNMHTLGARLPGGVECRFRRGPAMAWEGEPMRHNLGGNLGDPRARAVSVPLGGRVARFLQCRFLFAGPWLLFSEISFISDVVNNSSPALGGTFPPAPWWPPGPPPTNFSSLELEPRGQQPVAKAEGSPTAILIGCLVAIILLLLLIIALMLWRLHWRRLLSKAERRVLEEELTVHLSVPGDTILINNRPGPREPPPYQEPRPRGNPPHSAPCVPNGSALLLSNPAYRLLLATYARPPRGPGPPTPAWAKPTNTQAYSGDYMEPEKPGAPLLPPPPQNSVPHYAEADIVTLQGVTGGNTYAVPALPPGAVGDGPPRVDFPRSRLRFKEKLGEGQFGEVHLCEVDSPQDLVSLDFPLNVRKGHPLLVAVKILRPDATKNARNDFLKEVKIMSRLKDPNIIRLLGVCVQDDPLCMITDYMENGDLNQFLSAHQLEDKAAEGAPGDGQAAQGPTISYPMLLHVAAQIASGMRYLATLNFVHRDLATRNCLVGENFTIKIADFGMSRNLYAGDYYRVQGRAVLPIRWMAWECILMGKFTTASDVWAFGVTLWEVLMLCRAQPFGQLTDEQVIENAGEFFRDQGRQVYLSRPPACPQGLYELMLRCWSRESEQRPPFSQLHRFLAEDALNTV

B1: AB2003 (antibody, V domains shown)
VH: DVHLQESGPDLVKPSQSLSLTCTVTDYSITSGYGWHWIRQFPGNKLEWMGYIHYGGSTKYNSSLKSRISITRDTSKNQFFLQLKSVTTDDTGTYYCATSGNYGFAYWGQGTLVTVSA
VL: DIVLTQSPTSLAVSLGQRATMSCRASESVDDYGTSFMHWYQQKPGQPPKLLIYRASNLESGIPARFSGSGSRADFTLSINPVEPDDVATYYCQQSNEDPFTFGSGTKLEIKR
notes: mouse hybridoma mAb
Take B1: the Mean EC50, DDR1 Tyr513 phosphorylation assay (U20S) in experiment [1] was 3 nM. In addition, the MFI was determined as 176 MFI in [2], 1410 MFI in experiment [3], 6100 MFI in [4] and 15000 MFI in experiment [7]. For the same molecule, the binding result in the experiment with mouse ECD-DDR1-Fc is recorded as “no binding”. The results for the Kd in [5] and in experiment [6] were 0.153 nM and 0.216 nM, respectively. Moreover, the EC50, DDR1 phospho-specific ELISA (T47D) in [8] was 0.42 nM. Moreover, the EC50, cluster formation assay (A431 cells) in experiment [8] came out at 2.38 nM. This molecule also had a Maximal inhibition, DDR1 phospho-specific ELISA (T47D) in experiment [8] of 100%. Also, the NPI of cluster formation at 66 nM (A431 cells) in experiment [8] was found to be 128%.

B2: AB2040 (antibody, V domains shown)
VH: EVMLVESGGGLVKPGGSLKLSCAASGFTFSNYAMSWVRQTPEKRLEWVAKTSSGDTYTYYPDSVKGRFTISRDNAKNTLYLQMTSLRSEDTAIYYCARQDYYGITPWFFDVWGAGTTVTVSS
VL: ENVLTQSPAIMSASPGEKVTMTCRASSSVSSIYLHWYQQKSGASPKLWIYSTSNLASGVPARFSGSGSGTSYSLTITSVEAEDAATYYCQQYSGYPLITFGAGTKLELKR
notes: mouse hybridoma mAb
Take B2: the MFI in experiment [2] turned out to be 308 MFI; in [3], 2210 MFI; in [4], 2810 MFI; in [7] it was 13700 MFI. In addition, the binding result in the experiment with mouse ECD-DDR1-Fc was “no binding”. The Kd in experiment [5] came to 0.115 nM; in [6], 0.254 nM. In experiment [8], the EC50, DDR1 phospho-specific ELISA (T47D) was 0.34 nM. Moreover, the NPI of cluster formation at 66 nM (A431 cells) in [8] amounted to 3.6%.

B3: AB2073 (antibody, V domains shown)
VH: EVMLVESGGGLVKPGGSLKLSCAASGFTFSNYAMSWVRQTPEKRLEWVAKTSSGDTYTYYPDSVKGRFTISRDNAKNTLYLQMTSLRSEDTAIYYCARQDYYGITPWFFDVWGAGTTVTVSS
VL: ENVLTQSPAIMSASPGEKVTMTCRASSSVSSIYLHWYQQKSGASPKLWIYSTSNLASGVPARFSGSGSGTSYSLTITSVEAEDAATYYCQQYSGYPLITFGAGTKLELKR
notes: mouse hybridoma mAb
With B3, the MFI in experiment [2] amounted to 410 MFI; in experiment [3], 1690 MFI; in [4], 6050 MFI; in experiment [7] it was 16200 MFI. Besides, the binding result with mouse ECD-DDR1-Fc is listed as “no binding”. For the same molecule, the Kd in [5] amounted to 0.2 nM; in [6], 0.209 nM. Moreover, in [8], the EC50, DDR1 phospho-specific ELISA (T47D) was 0.45 nM. Further, in experiment [8], the NPI of cluster formation at 66 nM (A431 cells) is -0.2%.

B4: AB2054 (antibody, V domains shown)
VH: EVMLVESGGGLVKPGGSLKLSCAASGFTFSNYAMSWVRQTPEKRLEWVAKTSSGDTYTYYPDSVKGRFTISRDNAKNTLYLQMTSLRSEDTAIYYCARQDYYGITPWFFDVWGAGTTVTVSS
VL: ENVLTQSPAIMSASPGEKVTMTCRASSSVSSIYLHWYQQKSGASPKLWIYSTSNLASGVPARFSGSGSGTSYSLTITSVEAEDAATYYCQQYSGYPLITFGAGTKLELKR
notes: mouse hybridoma mAb
For B4, the MFI in experiment [2] worked out at 306 MFI; in experiment [3] it was 1530 MFI; in experiment [4], 5930 MFI; in experiment [7], 15500 MFI. Further, in the experiment with mouse ECD-DDR1-Fc, the binding result is on record as “no binding”. Besides, the Kd in experiment [5] amounted to 0.154 nM; in [6], 0.31 nM. In experiment [8], this molecule displayed an EC50, DDR1 phospho-specific ELISA (T47D) of 0.36 nM. Moreover, the NPI of cluster formation at 66 nM (A431 cells) in experiment [8] was 3.6%.

B5: AB2019 (antibody, V domains shown)
VH: QVQLKQSGPGLVQPSQSLSITCTVSGFSFTGYGIHWVRQSPGKGLEWLGVIWSGGITDYNAAFISRLSISMDSSKGQVFFKMNSLQANDTAIYYCARRSTTVVADYAMDYWGQGTSVTVSS
VL: SIVMTQTPKFLLVSAGDRVTITCKASQSVSNDVAWYQQKPGQSPKLLIYYASNRYTGVPDRFTGSGYGTDFTFTINTVQAEDLAVYFCQQDYTSPLTFGAGTKLELKR
notes: mouse hybridoma mAb
Molecule B5 yielded a Mean EC50, DDR1 Tyr513 phosphorylation assay (U20S) in experiment [1] of 6.6 nM. For the same molecule, the MFI in experiment [2] stood at 244 MFI; in experiment [3], 1490 MFI; in experiment [4], 4950 MFI; in experiment [7], 12600 MFI. Moreover, the values for the Kd in [5] and in [6] were 0.372 nM and 0.324 nM, respectively. Also, the EC50, DDR1 phospho-specific ELISA (T47D) in experiment [8] is 0.66 nM. In experiment [8], the Maximal inhibition, DDR1 phospho-specific ELISA (T47D) stood at 100%. Further, the NPI of cluster formation at 66 nM (A431 cells) in [8] is 113%.

B6: AB2032 (antibody, V domains shown)
VH: QVQLKQSGPGLVQPSQSLSITCTVSGFSFTGYGIHWVRQSPGKGLEWLGVIWSGGITDYNAAFISRLSISMDSSKGQVFFKMNSLQANDTAIYYCARRSTTVVADYAMDYWGQGTSVTVSS
VL: SIVMTQTPKFLLVSAGDRVTITCKASQSVSNDVAWYQQKPGQSPKLLIYYASNRYTGVPDRFTGSGYGTDFTFTINTVQAEDLAVYFCQQDYTSPLTFGAGTKLELKR
notes: mouse hybridoma mAb
For B6, in [1], the Mean EC50, DDR1 Tyr513 phosphorylation assay (U20S) was 7.72 nM. Besides, the MFI in experiment [2] was 265 MFI; in experiment [3], 1900 MFI; in [4], 6820 MFI; in experiment [7], 13700 MFI. Further, the results for the Kd in experiment [5] and in experiment [6] were 0.5 nM and 0.596 nM, respectively. This molecule also returned an EC50, DDR1 phospho-specific ELISA (T47D) in experiment [8] of 0.64 nM. In addition, in experiment [8], the EC50, cluster formation assay (A431 cells) stood at 6.89 nM. The Maximal inhibition, DDR1 phospho-specific ELISA (T47D) in experiment [8] was 100%. The NPI of cluster formation at 66 nM (A431 cells) in experiment [8] was determined as 103%.
